{"source": "paper PMC3605151", "about": "“The Common Structural Architecture of Shigella flexneri and Salmonella typhimurium Type Three Secretion Needles” (PLoS Pathogens, 2013)", "target": "the molecule itself", "experiment": "in vitro polymerisation into needles, seen by transmission electron microscopy and solid-state NMR; purified subunit polymerised at 0.2 mM, 37°C, sixteen days; needles ultra-centrifuged for magic-angle spinning solid-state NMR at 5.5°C", "data": [{"protein": "MxiH, wild-type Shigella flexneri T3SS needle subunit (recombinant, His tag cleaved) (natural protein, 15N and 13C isotope labelling, non-native N-terminal residues glycine and histidine left after cleavage by tobacco etch virus protease (told in words); MxiH, T3SS needle subunit, Shigella flexneri serotype 6, residues Met1 to R83; Helical homopolymer (needle); also called WT MxiH; WT Shigella T3SS needles; source: polymerized in vitro; not shown: hepta-Histidine (His) tag, N-terminal, cleaved) GHMSVTVPDKDWTLSSLSETFDDGTQTLQGQLTSALNALAENPSNPQLLAEYQSKLSEYTLYRNAQSNTVKVIKDVDAAIIQNFR", "values": [{"measurement": "binding result", "result": "binds"}]}]}
